Measurements: PMC2646082
Where two headings read alike, the source gives them in different places.

Tests used:
Assay in all cases: ITC
[1] = biological target: T1, HIV-1 nucleocapsid protein (NC) (HIV-1 NL4-3, UniProt P12493 378-432)
[2] = biological target: T1, HIV-1 nucleocapsid protein (NC); remark: listed apart in the source
[3] = biological target: T1, HIV-1 nucleocapsid protein (NC); remark: listed apart in the source
[4] = biological target: T1, HIV-1 nucleocapsid protein (NC); remark: listed apart in the source
[5] = biological target: T1, HIV-1 nucleocapsid protein (NC); remark: listed apart in the source
[6] = biological target: T1, HIV-1 nucleocapsid protein (NC); remark: listed apart in the source
[7] = biological target: T1, HIV-1 nucleocapsid protein (NC); remark: listed apart in the source
[8] = biological target: T1, HIV-1 nucleocapsid protein (NC); remark: listed apart in the source

B1: U5GUU (G108U;G112U) (ssRNA)
RNA: UGUUCCCUUCU
In the case of B1, the Kd [1] is reported as 880 ± 91 nM.

B2: U5 (U5GGG, native) (ssRNA)
RNA: UGUGCCCGUCU
For B2, the Kd [2] was 122 ± 10 nM.

B3: U5UUG (G106U;G108U) (ssRNA)
RNA: UUUUCCCGUCU
Binder B3 has a Kd [3] of 547 ± 55 nM.

B4: U5GUG (G108U) (ssRNA)
RNA: UGUUCCCGUCU
In the case of B4, the Kd [4] is reported as 239 ± 20 nM.

B5: U5GGU (G112U) (ssRNA)
RNA: UGUGCCCUUCU
B5 gave a Kd [5] of 81 ± 8 nM.

B6: U5UGU (G106U;G112U) (ssRNA)
RNA: UUUGCCCUUCU
B6 was tested, and the Kd [6] was 812 ± 91 nM.

B7: U5UUU (G106U;G108U;G112U) (ssRNA)
RNA: UUUUCCCUUCU
B7: no binding [7].

B8: U5UGG (G106U) (ssRNA)
RNA: UUUGCCCGUCU
For B8, the Kd [8] was 267 ± 20 nM.
